Experimental data published in paper PMC7049730 (Nucleic Acids Research, 2019).
Positions count from the first letter of the chain named. In names and notes the source's numbering stands.

B1: P. furiosus Rad50 nucleotide binding domain L51C/L828F, LRET-labelled (domain or fragment, Pyrococcus furiosus)
chain: MKLERVTVKNFRSHSDTVVEFKEGINLIIGQNGSGKSSLLDAILVGLYWPCRIKDIKKDEFTKVGARDTYIDLIFEKDGTKYRITRRFLKGYSSGEIHAMKRLVGNEWKHVTEPSSKAISAFMEKLIPYNIFLNAIYIRQGQIDAILESDEAREKVVREVLNLDKFETAYKKLSELKKTINNRIKEYRDILARTEGGAGGAGGRERVKKEIKDLEKAKDFTEELIEKVKKYKALAREAALSKIGELASEIFAEFTEGKYSEVVVRAEENKVRLFVVWEGKERPLTFLSGGERIALGLAFRLAMSLYLAGEISLLILDEPTPYFDEERRRKLITIMERYLKKIPQVILVSHDEELKDAADHVIRISLENGSSKVEVVS
modifications: Tb3+ chelate DTPA-cs124-EMPH (donor) or Bodipy FL maleimide (acceptor) on the cysteine L51C
notes: Rad50, Pyrococcus furiosus, amino acids 1-195; linker that replaces most of the coiled-coil and the Zn-hook; Rad50, Pyrococcus furiosus, amino acids 709-882; Measured within the MR^NBD complex with Mre11; also called L828F MR^NBD (LRET); source: labelled and passed over Superdex 200 Increase
B2: P. furiosus Rad50 nucleotide binding domain L51C/L828A, LRET-labelled (domain or fragment, Pyrococcus furiosus)
chain: B1 chain with F323A
modifications: Tb3+ chelate DTPA-cs124-EMPH (donor) or Bodipy FL maleimide (acceptor) on the cysteine L51C
notes: Rad50, Pyrococcus furiosus, amino acids 1-195; linker that replaces most of the coiled-coil and the Zn-hook; Rad50, Pyrococcus furiosus, amino acids 709-882; Measured within the MR^NBD complex with Mre11; also called L828A MR^NBD (LRET); source: labelled and passed over Superdex 200 Increase
B3: P. furiosus Rad50 nucleotide binding domain L51C/D829N, LRET-labelled (domain or fragment, Pyrococcus furiosus)
chain: B1 chain with F323L, D324N
modifications: Tb3+ chelate DTPA-cs124-EMPH (donor) or Bodipy FL maleimide (acceptor) on the cysteine L51C
notes: Rad50, Pyrococcus furiosus, amino acids 1-195; linker that replaces most of the coiled-coil and the Zn-hook; Rad50, Pyrococcus furiosus, amino acids 709-882; Measured within the MR^NBD complex with Mre11; also called D829N MR^NBD (LRET); source: labelled and passed over Superdex 200 Increase
B4: P. furiosus Rad50 nucleotide binding domain L51C/D829A, LRET-labelled (domain or fragment, Pyrococcus furiosus)
chain: B1 chain with F323L, D324A
modifications: Tb3+ chelate DTPA-cs124-EMPH (donor) or Bodipy FL maleimide (acceptor) on the cysteine L51C
notes: Rad50, Pyrococcus furiosus, amino acids 1-195; linker that replaces most of the coiled-coil and the Zn-hook; Rad50, Pyrococcus furiosus, amino acids 709-882; Measured within the MR^NBD complex with Mre11; also called D829A MR^NBD (LRET); source: labelled and passed over Superdex 200 Increase

How the values were obtained:
[1] = target: Mre11^HLH-Rad50^NBD, wild type (Pyrococcus furiosus) (UniProt P58301); experiment: SEC; Superdex 200 Increase 10/300 GL, 4 °C, with 5 mM ATP; fraction dimer = area of the dimer peak over the areas of monomer and dimer peaks; monomer to dimer
[2] = target: P. furiosus Rad50 nucleotide binding domain L51C/D829N, LRET-labelled (UniProt P58301); experiment: LRET time course; conditions: Rad50 NBD in MRNBD complex with Mre11; after addition of saturating ATP; parent: est. 1.0; read off a plot
[3] = target: P. furiosus Rad50 nucleotide binding domain L51C/L828A, LRET-labelled (UniProt P58301); experiment: LRET time course; conditions: Rad50 NBD in MRNBD complex with Mre11; after addition of saturating ATP; parent: est. 1.0; read off a plot
[4] = target: T1, Pf MR^NBD complex (Mre11-Rad50^NBD) (Pyrococcus furiosus, UniProt P58301, DEL196-708); experiment: Mre11 exonuclease assay, 2-aminopurine fluorescence (Exo2 dsDNA); format: biochemical; conditions: 1 mM AMP-PNP, 1 mM MnCl2, 5 mM MgCl2, 60 C, pH 7.5; binds Rad50 and stabilizes the closed state that occludes the Mre11 active site
T1 construct: ~180 kDa complex; with DNA double-strand break repair protein Mre11

[5] = target: P. furiosus Rad50 nucleotide binding domain L51C/L828F, LRET-labelled (UniProt P58301); experiment: LRET time course; conditions: Rad50 NBD in MRNBD complex with Mre11; after addition of saturating ATP; parent: est. 1.0; read off a plot
[6] = target: the molecule itself; experiment: FRET or BRET; LRET between Tb3+ chelate (donor) and Bodipy FL (acceptor) on L51C of the two Rad50^NBD in MR^NBD complexes with Mre11; donor-sensitized acceptor lifetimes, three-exponential fit; no ATP (apo); 0.5 uM wild type, L828A, D829A or 2.0 uM L828F, D829N complexes; 50 mM Tris, 200 mM NaCl, 5 mM MgCl2, pH 7.5, 50 °C; percent of LRET-visible molecules only
[7] = target: the molecule itself; experiment: FRET or BRET; LRET time course: increase of donor-sensitized Bodipy FL emission after addition of 2 mM ATP to MR complexes; kex = k_assoc + k_dissoc of open to closed; 50 mM Tris, 200 mM NaCl, 5 mM MgCl2, pH 7.5, 50 °C
[8] = target: the molecule itself; experiment: FRET or BRET; as a1 but with 2 mM ATP (ATP-bound); MR^NBD complexes with Mre11; 50 mM Tris, 200 mM NaCl, 5 mM MgCl2, pH 7.5, 50 °C; percent of LRET-visible molecules only

Molecule	percent of molecules in the closed state [6] [%]	fold faster approach to equilibrium (kex) than wild type [7] [fold]	percent of molecules in the closed state [8] [%]	other results
Mre11^HLH-Rad50^NBD, wild type (from UniProt P58301 1-195; P58301 709-882) (complex)	–	–	–	percent converted to a stable dimer upon addition of ATP [1]: 30%; stoichiometry N [1]: 2
P. furiosus Rad50 nucleotide binding domain L51C, LRET-labelled (from UniProt P58301) D829N	–	–	–	ratio to parent [2]: 8.7
P. furiosus Rad50 nucleotide binding domain L51C, LRET-labelled (from UniProt P58301) L828A	–	–	–	ratio to parent [3]: 4.4
Nc1ncnc2c1ncn2[C@@H]1O[C@H](COP(=O)(O)OP(=O)(O)NP(=O)(O)O)[C@@H](O)[C@H]1O [AMP-PNP]	–	–	–	Mre11 exonuclease assay, 2-aminopurine fluorescence (Exo2 dsDNA) [4]: AMP-PNP, which stabilizes the complex into the closed state and occludes the Mre11 active
P. furiosus Rad50 nucleotide binding domain L51C, LRET-labelled (from UniProt P58301) L828F	–	–	–	ratio to parent [5]: 4.2
B1	30	~4	30	–
B2	46	~4	54	–
B3	33	~8	33	–
B4	42	–	60	–
